Measured values: publication PMC8121366, “Crystal and solution structures reveal oligomerization of individual capsid homology domains of Drosophila Arc” (PLoS ONE, 2021)

B1: Drosophila Arc1 C-lobe (domain or fragment)
chain: KPAYQIYMEFFQNKQDDHDPIDTFVIQKRALLAQLPSGRHDEETELDLLFGLLNIKYRKHISRHSVHTFKDLLEQGRIIEHNNQED
notes: Arc1 (dArc1) of Drosophila, isolated C-lobe; monomeric mass 11 kDa; Dimer in the crystal and in solution; also called dArc1-CL; source: E. coli BL21(DE3), purified (Ni-NTA, TEV cleavage, second Ni-NTA, amylose resin, Superdex S200); not shown: His tag, N-terminal, cleaved; MBP, N-terminal, cleaved
B2: Drosophila Arc2 N-lobe (domain or fragment)
chain: RFSGQRDHDAVDEFINAVETYKEVEGISDKDALKGLPLLFKSIAVVWWKGVRRDAKTWSDALQLLRDHFSPT
notes: monomeric mass 8.4 kDa; Tetramer in solution (SEC-MALS, SAXS); domain-swapped dimer in the crystal; also called dArc2-NL; source: E. coli BL21(DE3), purified (Ni-NTA, TEV cleavage, second Ni-NTA, Superdex S200); not shown: His tag, N-terminal, cleaved; MBP, N-terminal, cleaved
B3: Drosophila Arc2 C-lobe (domain or fragment)
chain: KPSYQIYMEIFETKQSYDEVIDSFICKQRALLAKLPEGRHDEETELDFIYGLMQPKYRESIPRHEVKTFRELLDRGRTVERTRH
notes: Arc2 (dArc2) of Drosophila, isolated C-lobe; monomeric mass 10 kDa; Dimer in the crystal and in solution; also called dArc2-CL; source: E. coli BL21(DE3), purified (Ni-NTA, TEV cleavage, second Ni-NTA, amylose resin, Superdex S200); not shown: His tag, N-terminal, cleaved; MBP, N-terminal, cleaved
B4: Drosophila Arc1 N-lobe (domain or fragment)
chain: SFGGTRDHDVVEEFIGNIETYKDVEGISDENALKGISLLFYGMASTWWQGVRKEATTWKEAIALIREHFSPT
modifications: limits inferred from the homologous dArc2-NL construct (6SIB, 37-109), the 8.2 kDa monomer mass and the dArc1-CL start at 123 (6SID); start uncertain by about 1 residue; dimer in solution / limits …

How the values were obtained:
[1] = target: the molecule itself; experiment: SEC-MALS + other: SAXS; SEC-MALS on Superdex S200 Increase 10/300 in TBS (20 mM Tris-HCl pH 7.4, 150 mM NaCl); SEC-SAXS on Superdex S200 Increase 3.2 in TBS, injected at 5 mg/ml, +10°C
Drosophila Arc1 N-lobe = target: T1, Drosophila Arc1 N-lobe (Drosophila); experiment: as above; conditions: both partners purified
T1 chain: B4 chain

| Binder | stoichiometry N [1] | stoichiometry N (Drosophila Arc1 N-lobe) |
| --- | --- | --- |
| B1 | 2 | – |
| B2 | 4 | – |
| B3 | 2 | – |
| B4 | – | 2 |
